Experiments:
[1] = target: SARS-CoV-2 S ectodomain (residues 1-1214) with prefusion stabilizing 986P, 987P variants, C-terminal (SARS-CoV-2) (UniProt P0DTC2); test: SEC
[2] = target: SARS-CoV-2 prefusion-stabilized spike protein ectodomain (aa 16-1208), expressed in Drosophila S2 cells (SARS-CoV-2) (UniProt P0DTC2); test: SEC

SARS-CoV-2 S ectodomain (residues 1-1214) with prefusion stabilizing 986P, 987P variants, C-terminal (from UniProt P0DTC2 14-1214) (domain or fragment)
stoichiometry N [1]: 3

SARS-CoV-2 prefusion-stabilized spike protein ectodomain (aa 16-1208), expressed in Drosophila S2 cells (from UniProt P0DTC2 16-1208) (domain or fragment)
stoichiometry N [2]: 2
